# Test: yeast display, Sf9 membrane polyspecificity reagent, FACS + sequencing; frameworks hold sequencing errors
# How it was run: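 Galactose-induced (36–48 hours) yeast carrying a synthetic nanobody display library were exposed to 10% biotinylated, detergent-solubilized Sf9 membrane reagent at 4 °C for 1 hour. FACS followed streptavidin microbead enrichment, using low and high (top ~1%) gates for expression (anti-HA) and reagent binding (streptavidin). Colony PCR, MiSeq 2 × 250 sequencing and CDR-length filtering followed. Labels for polyreactivity reflect the gate of origin.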
row,Sequence,polyreactivity (PSR sort gate)
1,QVQLVESGGGLVQAGGSLRLSCAASGRIYRRNTMGWYRQAPGKERELVAAITSSGGSTYADSVKGRFTISRDNAKNTVYLQMISLKPEDSAVYYCATYVAYHRGYRTYDHWGQGTHVTVSS,low polyreactivity
2,QVQLVESGGGLVQAGGSLRLSCAASGRIYSVYGLGWYRQAPGKDRELVAAISSSAGSTNYADSVKGRFTISRDNAKNTVYLQMNSLKPEDTAVYYCAAYYRRVVYYPTAYYIRKYDYWGQGTQVTVSS,high polyreactivity
3,QVQLVESGGGLVQAGGSLRLSCAASGRIYSYYAMGWYRQAPGKERELVATINSGGSTNYADSVNGRFTISRDNAKNTVYLQMKSLKPEDTAVYYCGALRDRDITVYYDTGRMYYWGQGTQVNVSS,low polyreactivity
4,QVQLVESGGGLVQAGGSLRLSCAASGRIYWNTMGWYRPAPGKERELVASISTGGGRTYYADSVKGRFTISRDNAKNTVYLQMNSLKPEDTAVYYCAARRGAGYSRFNYWGQGTQVTVSS,high polyreactivity
5,QVQLVESGGGLVQAGGSLRLSCAASGRIYWNTMGWYRQAPGKERQLVASISTGGGRTYYADSVKGRFTISRDNAKNTVYLQMNSLKPEDTAVYYCAARRGAGYSRFNYWGQGTQVTVSS,high polyreactivity
6,QVQLVESGGGLVQAGGSLRLSCAASGRIYYVYGMGWYRQAPGKERELVAAITRSGGSTYYADSVKGRFTISRDNAKNTVYLQMNSLKPEDTAVYYCAASVPYYTGYYYNAYEYWGQGTQVTVSS,high polyreactivity
7,QVQLVESGGGLVQAGGSLRLSCAASGRIYYWYDMGWYRQAPGKERELVAAISWSGGSTSYADSVKGRFTISRDNAKNTVYLQMNSLKPEDTAVYYCNADLTQYLGPVYEYGYWGQGTQVTVSS,low polyreactivity
8,QVQLVESGGGLVQAGGSLRLSCAASGRIYYYYTMGWYRQAPGKERELVAGISRSGDRTYYADSVKGRFTISRDIAKNTVYLQMNSLKPEDTAVYYCATRWSSARMDYWGQGTQVTVSS,high polyreactivity
9,QVQLVESGGGLVQAGGSLRLSCAASGRLFGAYGMGWYRQAPRKERELVAAISNGGRTSYADSVKGRFTISRDNAKNTVYLQMNSLKPEDTAVYYCAAVYWPWYGAYDYWGQGTQVTVSS,high polyreactivity
10,QVQLVESGGGLVQAGGSLRLSCAASGRLFRHNAMGWYRQAPGKERELVAVISRSTGSTYYADSVKGRFTISRYNAKNTVYLQMNSLKPEDTAVYYCDAKYGSGQRYDYWGQGTQVTVSS,high polyreactivity
11,QVQLVESGGGLVQAGGSLRLSCAASGRLFRWYAMGGYRQAPGKERELVAAISRSGTSTYYADSVKGRFTISRDNAKNSVYLQMNSLKPEDTAVYYCAADAVIFGMDYWGQGTQVTVSS,low polyreactivity
12,QVQLVESGGGLVQAGGSLRLSCAASGRMGWYRQAPGKERELVAAITSGDRTNYADSVKGRFTISRDNAKNTVYLQMNSLKREDTAVYYCATEPSWYHGFIDPRGYWGQGTQVTVSS,low polyreactivity
13,QVQLVESGGGLVQAGGSLRLSCAASGRNFDRNAMGWSRQAPGKERELVARIDPGDDTNYADSVKGRFTISRDNAKNTVYLQMNSLKPEDTAVYYCATDPDYVLYRTAYYEYDYWGQGTQVTVSS,low polyreactivity
14,QVQLVESGGGLVQAGGSLRLSCAASGRNFFANAMGWYRQAPGKERELVASITRRSGGTYYADSVKGRFTISRDNAKNTVYLQMISLKPEDTAVYYCAARYTFPKDLYYYWGQGTQVTVSS,high polyreactivity
15,QVQLVESGGGLVQAGGSLRLSCAASGRNFGIYAMGWYRQAPGKERELVARITGGGSTNYADSVKGRFTISRDNAKNTVYLQMNSLKPEDTAVYYCAATVRRIVGNITRYDYWGQGTQVTVSS,low polyreactivity
16,QVQLVESGGGLVQAGGSLRLSCAASGRNFGRYAMGCYRQAPGKERELVAAITGRGASTYYADSVKGRFTISRDNAKHTVYLQMNSLKPEDTAVYYCNAFRGAQGTDAYDWGQGTQVPVSS,low polyreactivity
17,QVQLVESGGGLVQAGGSLRLSCAASGRNFGSNTMGWYRQAPGKERELVAAITGDDSTYADSVKGRFTISRDNAKNTVYLQMNSLKPEDTAVYYCAVVWVWDVWFLVYYWGQGTQVTVSS,low polyreactivity
18,QVQLVESGGGLVQAGGSLRLSCAASGRNFKQYAMGWYRQAPGKERELVAVITRGGGSTYYADSVKGRFTISRDNAKNTVYLQMNSLKPEDTAVYYCAARGTQAPPGRRTGGYNSWGQGTQVTVSS,high polyreactivity
19,QVQLVESGGGLVQAGGSLRLSCAASGRNFPDNTMGWYRHAPGKERELVATIAWIGASTYYADSEKGRFTISRDNAKNTVYLQMNSLKPEDTAVDYCAGTTSHRWYGFNSKYDFDYWGQGTQVTVSS,low polyreactivity
20,QVQLVESGGGLVQAGGSLRLSCAASGRNFQWYSMGWSRQAPGKEREFVAAIRYSGGSTYYADSVKGRFTISRDNAKNTVYLQMNSMKPEDTSVYYCNARTGFLARNKRFGYWGQGTQVSVSS,high polyreactivity
21,QVQLVESGGGLVQAGGSLRLSCAASGRNFRGNTMGWYRQAPGKERELVAAITRGGSTSYADSVKGRFTISRDNAKNTVILQMNSLKPEDTAVYYCATRTHGEGTRRVSWGQGTQVTVSS,low polyreactivity
22,QVQLVESGGGLVQAGGSLRLSCAASGRNFRLNAMGWYRQAPGKERDLVARITGSYGGSTYYADSVKGRFTISRDNAKNTVSLQMISLKPEDSAGYYCADDGTGSYKGYYWGLGTQVTVSS,high polyreactivity

row,Sequence,polyreactivity (PSR sort gate)
1,QVQLVESGGGLVQAGGSLRLSCAASGRNFRYYAMGWYRQAPGKERELVAAITTGSSTYYADSVKGRFTISRDNAKNTVYLQMNSLKPEDTAVYYCNVFQGTRYGYWGQGTQVTVSS,low polyreactivity
2,QVQLVESGGGLVQAGGSLRLSCAASGRNFSRYALGWYRQAPGKERELVAAINNGGSTYYADSVKGRFTISRDNAMNTVYLQMNSLKPEDTALYYCAKLWWSNFKPVEYWGQGTQVTVSS,low polyreactivity
3,QVQLVESGGGLVQAGGSLRLSCAASGRNFSTYAMGWYRQAPWKERELVAAINKIGGSTYYADSVKGRFTISRDNAKNTVYLQMNILKPEDTAVYYCAADAPYYPVRRYYYWGQGTQVTVSS,low polyreactivity
4,QVQLVESGGGLVQAGGSLRLSCAASGRNFWYYAMGWYRQAPGKERELVAGITYGDGSTYYADSVKGRFTISRDNAKNTVYLQMNSLKPEDTAVYYCAVDLRSYWFRYGFDYWGQGTQVTVSS,low polyreactivity
5,QVQLVESGGGLVQAGGSLRLSCAASGRNFYYAMGWYRQEPGKERELVASITWSGGSTYYADSVKGRFTISRDNAKNTVYLQMNSLKPEDTAVYYCNADDLYTWYVEYNYWGQGTQVTVSS,low polyreactivity
6,QVQLVESGGGLVQAGGSLRLSCAASGRNFYYNAMGWYRQAPGKERELVASITGSGGSTYYADSVKGRFTISRDNAKNTVYLQMNSLKPEDTAVYYCAKREYLYPYYYVAKYDYWGQGTQVTVSS,low polyreactivity
7,QVQLVESGGGLVQAGGSLRLSCAASGRNFYYYAMGWYRQAPGKERELVAGISWSAGSTYYADSVKGRFTISRDNAKNTVYLQMNSLKPEDTAVYYCAARYWQSYRSQVTHSSTLDYWGQGTQVTVSS,low polyreactivity
8,QVQLVESGGGLVQAGGSLRLSCAASGRNLHYYSMGWYRQAPGKEWELVAAITWSGGSTYYADSVNGRFTISRDNAKNTVYLQMNSLKPVDTSVYYCAARGTDWGQGTQVTVSS,low polyreactivity
9,QVQLVESGGGLVQAGGSLRLSCAASGRNSSWNAMGWYRPAPGKERELVAAISVRGGSTYADSVKGRFTISRDNAKNTVSLQMNSLTPADTAVYYCAKTYYPYRLGEGQYEYDYWGQGTQVTVSS,low polyreactivity
10,QVQLVESGGGLVQAGGSLRLSCAASGRPFWQYAMGWKRQGPGKERELVAAITSSGGSTYDADSVKGRITISRDNAKNTVYLQMNCLKPEDTAVYYCADDTRYYRYYYWGQGTQVTVSS,high polyreactivity
11,QVQLVESGGGLVQAGGSLRLSCAASGRRFRWYVMGWYRQAPGKERELVARISSNVGSTYYADSVKGRFTISRDNAKNTVYLQMNSLKPEDTAVYYCAAGPPKYYYSNRYYWGQGTQVTVSS,high polyreactivity
12,QVQLVESGGGLVQAGGSLRLSCAASGRSFAPYAMGWSRQAPGKERELVAAISLSTTRTYYADSVKGRFTISRDNAKNTVYLQMNSLKPEDTAVYYCAAETFTGYFFLRHDYWGQGTQVTVSS,high polyreactivity
13,QVQLVESGGGLVQAGGSLRLSCAASGRSFKYNAMGWYRQAPGKERELVAAISISGGSTYYADSVKGRFTISRDNAKNTVYLQMNSLKPEDTAVYYCNDDTYYLSDYVTFDYWGQGTQVTVSS,low polyreactivity
14,QVQLVESGGGLVQAGGSLRLSCAASGRSFLYYAMGWYRQAPGKERELVAAIRRGSSTYYADSVKGRFTISRDNAKNTVYLQMNSLKPEDTAVYYCAARGRYRIGPGRYGKRYAYWGQGTQVTVSS,high polyreactivity
15,QVQLVESGGGLVQAGGSLRLSCAASGRSFNPYAMGWYRQAPGKERELVAAITNSGGSTYYADSVKVRFTISRDTAMNTFYLQMNSLKPEDTAVYYCNARRYPRYYYWGQGTQVTGSS,high polyreactivity
16,QVQLVESGGGLVQAGGSLRLSCAASGRSFNYNTMGWYRQAPGKERELVAAINKGGTRTYYADSVKGRFTISRDNAKNTVYLQMNSLKPEDTAVYYCAARLYSYDYWGQGTQVTVSS,high polyreactivity
17,QVQLVESGGGLVQAGGSLRLSCAASGRSFRPYARGWYRQAPGKERELVAAISSSGGSTYYADSVKGRFTISRDNAKNTVYLQMNSLKPEDTAVYYCATYFARGYNSWGQGTQVTVSS,high polyreactivity
18,QVQLVESGGGLVQAGGSLRLSCAASGRSFRYNAMGWYRQAPGKARELVAAISSGGSTNYADSVKGRFTTTRDNAKNTVYLQMNSLKPEDTAVYYCNAVYVHRYPGWGYDYWGQGTQVTVSS,low polyreactivity
19,QVQLVESGGGLVQAGGSLRLSCAASGRSFVLNAMGWYRQAPGKDRELVAAISSGGSTNYADSVKWRFTISRDNAKNTDYLQMNSLKPEDTAVYYCAGQDVNEYSAYYYWGQGTQVTGSS,low polyreactivity
20,QVQLVESGGGLVQAGGSLRLSCAASGRSFVSYAMGWYRQAPGKERELVASITSSDGTNYADSVKGRFTISRDNEKNTVYLQMNSLKPEDTAVFYCNKDGFTTDRIGPTSDYWGQGTQVTVSS,low polyreactivity
21,QVQLVESGGGLVQAGGSLRLSCAASGRSIWYYTMGWYRQAPGKERQFFAAITTSGGSTTYADSVKGRYTISRDTAKNTVFLQRNSLKPEDSAVYYCAARVYHGKSKYDYWGQGSQVTVSS,high polyreactivity

# — the nanobody polyreactivity screen of Harvey et al. (2022)
